Changes are numbered by the printed parent chain. Names and notes keep the numbering of the source.
T1: TNFR1 (Homo sapiens, UniProt P19438)
T1 chain: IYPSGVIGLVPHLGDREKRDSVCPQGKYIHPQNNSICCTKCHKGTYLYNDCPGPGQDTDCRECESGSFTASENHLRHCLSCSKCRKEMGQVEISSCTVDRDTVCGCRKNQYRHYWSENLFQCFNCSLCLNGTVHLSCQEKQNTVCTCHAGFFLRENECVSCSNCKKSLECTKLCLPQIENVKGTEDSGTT

B1: L96W (designed binder)
chain: MTLQELLREEALRRAEAEAFRYALELLAEKFPEQKEYLLDLAEEIESQIRSLSGVDVEDVRKFLDKEWAWVKELLAEHPAELAEVEAARAARLAEWRAEVEAKVAA
B2: E73S (designed binder)
chain: B1 chain with E73S, W96L
B3: L3D (designed binder)
chain: B1 chain with L3D, W96L
B4: I45P (designed binder)
chain: B1 chain with I45P, W96L
B5: L64Y (designed binder)
chain: B1 chain with L64Y, W96L
B6: V85G (designed binder)
chain: B1 chain with V85G, W96L
B7: R14Y (designed binder)
chain: B1 chain with R14Y, W96L
B8: L12R (designed binder)
chain: B1 chain with L12R, W96L
B9: Q48M (designed binder)
chain: B1 chain with Q48M, W96L
B10: L24C (designed binder)
chain: B1 chain with L24C, W96L
B11: A15Q (designed binder)
chain: B1 chain with A15Q, W96L
B12: V55R (designed binder)
chain: B1 chain with V55R, W96L
B13: M1N (designed binder)
chain: B1 chain with M1N, W96L
B14: D40A (designed binder)
chain: B1 chain with D40A, W96L
B15: L64N (designed binder)
chain: B1 chain with L64N, W96L
B16: A91N (designed binder)
chain: B1 chain with A91N, W96L
B17: P79G (designed binder)
chain: B1 chain with P79G, W96L
B18: K72T (designed binder)
chain: B1 chain with K72T, W96L
B19: L3F (designed binder)
chain: B1 chain with L3F, W96L
B20: L41F (designed binder)
chain: B1 chain with L41F, W96L
B21: V57C (designed binder)
chain: B1 chain with V57C, W96L
B22: K62H (designed binder)
chain: B1 chain with K62H, W96L
B23: R61L (designed binder)
chain: B1 chain with R61L, W96L
B24: E73W (designed binder)
chain: B1 chain with E73W, W96L
B25: D56I (designed binder)
chain: B1 chain with D56I, W96L
B26: L7R (designed binder)
chain: B1 chain with L7R, W96L
B27: W68Q (designed binder)
chain: B1 chain with W68Q, W96L
B28: E67I (designed binder)
chain: B1 chain with E67I, W96L
B29: D59C (designed binder)
chain: B1 chain with D59C, W96L
B30: L74S (designed binder)
chain: B1 chain with L74S, W96L
B31: A98Q (designed binder)
chain: B1 chain with W96L, A98Q
B32: A11C (designed binder)
chain: B1 chain with A11C, W96L
B33: W70V (designed binder)
chain: B1 chain with W70V, W96L
B34: M1H (designed binder)
chain: B1 chain with M1H, W96L
B35: A105C (designed binder)
chain: B1 chain with W96L, A105C
B36: E67A (designed binder)
chain: B1 chain with E67A, W96L
B37: E29F (designed binder)
chain: B1 chain with E29F, W96L
B38: A102Q (designed binder)
chain: B1 chain with W96L, A102Q
B39: E58G (designed binder)
chain: B1 chain with E58G, W96L
B40: D59Q (designed binder)
chain: B1 chain with D59Q, W96L
B41: G54E (designed binder)
chain: B1 chain with G54E, W96L
B42: L93Q (designed binder)
chain: B1 chain with L93Q, W96L
B43: E5V (designed binder)
chain: B1 chain with E5V, W96L
B44: A90D (designed binder)
chain: B1 chain with A90D, W96L
B45: P32K (designed binder)
chain: B1 chain with P32K, W96L
B46: A98C (designed binder)
chain: B1 chain with W96L, A98C
B47: R8H (designed binder)
chain: B1 chain with R8H, W96L
B48: L39T (designed binder)
chain: B1 chain with L39T, W96L
B49: G54L (designed binder)
chain: B1 chain with G54L, W96L
B50: L24K (designed binder)
chain: B1 chain with L24K, W96L
B51: D56Y (designed binder)
chain: B1 chain with D56Y, W96L
B52: A19P (designed binder)
chain: B1 chain with A19P, W96L
B53: E10C (designed binder)
chain: B1 chain with E10C, W96L
B54: V57T (designed binder)
chain: B1 chain with V57T, W96L
B55: L26V (designed binder)
chain: B1 chain with L26V, W96L
B56: W70S (designed binder)
chain: B1 chain with W70S, W96L
B57: L12Q (designed binder)
chain: B1 chain with L12Q, W96L
B58: E16A (designed binder)
chain: B1 chain with E16A, W96L
B59: D65T (designed binder)
chain: B1 chain with D65T, W96L

Biological target: T1, TNFR1
Assay: yeast display SC50

Binder | apparent Kd (screen) [pM]
B1 | 790
B2 | 539
B3 | 718
B4 | 229
B5 | 490
B6 | 718
B7 | 490
B8 | 490
B9 | 1160
B10 | 593
B11 | 718
B12 | 2480
B13 | 490
B14 | 539
B15 | 593
B16 | 593
B17 | 956
B18 | 718
B19 | 2250
B20 | 790

Binder | apparent Kd (screen) [pM]
B21 | 539
B22 | 718
B23 | 539
B24 | 653
B25 | 2730
B26 | 8560
B27 | 5310
B28 | 6430
B29 | 13800
B30 | 2250
B31 | 653
B32 | 405
B33 | 20200
B34 | 539
B35 | 653
B36 | 12500
B37 | 653
B38 | 539
B39 | 490
B40 | 869

Binder | apparent Kd (screen) [pM]
B41 | 26900
B42 | 539
B43 | 593
B44 | 446
B45 | 653
B46 | 490
B47 | 869
B48 | 2050
B49 | 16700
B50 | 11400
B51 | 2250
B52 | 9410
B53 | 16700
B54 | 1050
B55 | 790
B56 | 12500
B57 | 790
B58 | 539
B59 | 593

Reference: paper PMC12416549 (2024)
